Data taken from article PMC3328386 (The Journal of Cell Biology, 2012).

How the values were obtained:
recombinant SUMO2 = recombinant SUMO2 (UniProt P61956 1-95); assay: ITC
recombinant SUMO1 = recombinant SUMO1 (UniProt P63165 1-97); assay: ITC
recombinant SUMO1, sequence (P63165 1-97): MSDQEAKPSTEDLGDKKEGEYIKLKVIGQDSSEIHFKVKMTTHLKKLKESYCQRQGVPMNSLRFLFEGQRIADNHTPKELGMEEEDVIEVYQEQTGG

recombinant SUMO2, sequence (P61956 whole entry): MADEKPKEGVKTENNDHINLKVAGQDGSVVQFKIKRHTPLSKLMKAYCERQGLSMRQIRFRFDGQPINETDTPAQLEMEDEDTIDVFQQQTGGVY

B1: recombinant HERC2 ZZ domain (amino acids 2702–2755), WT (domain or fragment)
chain: IHPGVTCDGCQMFPINGSRFKCRNCDDFDFCETCFKTKKHNTRHTFGRINEPGQ
Work on B1 yielded a Kd (recombinant SUMO2) of roughly 60 µM and a Kd (recombinant SUMO1) of roughly 3 µM.
